Paper PMC9087282, “The W-Acidic Motif of Histidine Kinase WalK Is Required for Signaling and Transcriptional Regulation in Streptococcus mutans” (Frontiers in Microbiology, 2022)
Changes are numbered by the printed parent chain.

Key:
[1] = target: GST fusion protein with full-length S. aureus WalR (1–233) (Staphylococcus aureus NCTC8325) (UniProt Q2G2U6)
[2] = target: S. mutans WalR full-length (Streptococcus mutans UA159); assay: ITC; MicroCal iTC200, 25°C; 500 μM WalK (196–450) WT or CTT mutant in the syringe, 20 μM full-length WalR in the cell; 20 mM Tris-HCl pH 8.0, 200 mM NaCl, 20% glycerol
[3] = target: T1, S. aureus WalK (364–608) D605A (Staphylococcus aureus NCTC8325, UniProt Q2G2U4 364-608, D605A); assay: pull-down; GST-tagged WalR protein held on glutathione agarose beads, His-tagged WalK as prey, equal molar amounts (~3 μl of 50 μM each) in 1 ml of 20 mM Tris-HCl pH 8.0, 200 mM NaCl, 5% glycerol, 2 mM EDTA, 2 h at 4°C; SDS-PAGE stained with CBB; conditions: both partners purified
T1 construct: source: E. coli BL21 (DE3), purified (Ni-NTA, Superdex 200); not shown: His tag, N-terminal, kept
T1 sequence: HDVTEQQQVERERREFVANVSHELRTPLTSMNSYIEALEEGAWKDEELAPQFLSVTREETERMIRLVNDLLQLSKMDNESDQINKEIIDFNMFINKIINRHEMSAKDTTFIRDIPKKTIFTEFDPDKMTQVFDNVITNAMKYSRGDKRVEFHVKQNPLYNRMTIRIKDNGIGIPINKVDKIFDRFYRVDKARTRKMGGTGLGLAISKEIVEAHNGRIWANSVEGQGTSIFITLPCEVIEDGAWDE

[4] = target: T2, S. aureus WalK (364–608) WT (Staphylococcus aureus NCTC8325, UniProt Q2G2U4 364-608); assay: as above; conditions: both partners purified
T2 construct: cloned in pET-His; source: E. coli BL21 (DE3), purified (Ni-NTA, Superdex 200); not shown: His tag, N-terminal, kept
T2 sequence (looked up): T1 sequence with A242D

WalR full-length = WalR full-length (Streptococcus mutans UA159, UniProt Q93MY4 1-235); assay: EMSA; 20 uM DNA; complex released by increasing WalK 196-450; conditions: protein: recombinant; chain copies: 2
WalK (196-450) = WalK (196-450) (Streptococcus mutans UA159, UniProt Q8DT64 196-450); assay: EMSA; conditions: protein: recombinant; tags: N-terminal His
WalR DBD = WalR DBD (Streptococcus mutans UA159, UniProt Q93MY4 129-235); assay: EMSA; 20 uM DNA; complex released by WalK 196-450 (W443A and delta-tail WalK compete less); conditions: protein: recombinant; chain copies: 2

“S. aureus WalK (364–608) W606A (from UniProt Q2G2U4 364-608) (domain or fragment)” was tested, and the phosphotransferase activity of S. aureus WalK (364–608) with WalR (loss of phospho-WalK, at 30 min) [1] was 2 ×.

“S. aureus WalK (364–608) D607A (from UniProt Q2G2U4 364-608) (domain or fragment)” showed a phosphotransferase activity of S. aureus WalK (364–608) with WalR (loss of phospho-WalK, at 30 min) [1] of 2 ×.

In the case of “S. mutans WalK (196–450) WT (domain or fragment)”, the Kd [2] is reported as 1210 nM.

B1: GST fusion protein with full-length S. aureus WalR (1–233) (natural protein, Staphylococcus aureus NCTC8325, UniProt Q2G2U6 1-233, looked up)
chain: MARKVVVVDDEKPIADILEFNLKKEGYDVYCAYDGNDAVDLIYEEEPDIVLLDIMLPGRDGMEVCREVRKKYEMPIIMLTAKDSEIDKVLGLELGADDYVTKPFSTRELIARVKANLRRHYSQPAQDTGNVTNEITIKDIVIYPDAYSIKKRGEDIELTHREFELFHYLSKHMGQVMTREHLLQTVWGYDYFGDVRTVDVTIRRLREKIEDDPSHPEYIVTRRGVGYFLQQHE
notes: cloned in pET-GST; also called GST-WalR; source: E. coli BL21 (DE3), purified (glutathione agarose, Superdex 200); not shown: GST, N-terminal, kept
B1: binds [3]; binds [4].

B2: gtfC promoter 25-mer (dsDNA)
DNA 1: GTTTGTTATAAAAGTGTTACAATAC
DNA 2: GTATTGTAACACTTTTATAACAAAC
B2: binds (WalR full-length); no binding (WalK (196-450)); binds (WalR DBD).
